# Results: publication PMC4585734, “RBM45 homo-oligomerization mediates association with ALS-linked proteins and stress granules” (Scientific Reports, 2015)
# Substitutions are numbered along the chain they refer to. Values joined by “and” are separate entries in the source; they are usually repeats but may differ in a detail not shown here. Equal values may be shown once.
# B1: truncated HA-RBM45 variant (107–474) that lacks RRM1 (domain or fragment, human, UniProt Q8IUH3-3 107-474, looked up)
# chain: RSSGSHRDVEDEELTRIFVMIPKSYTEEDLREKFKVYGDIEYCSIIKNKVTGESKGLGYVRYLKPSQAAQAIENCDRSFRAILAEPKNKASESSEQDYYSNMRQEALGHEPRVNMFPFEQQSEFSSFDKNDSRGQEAISKRLSVVSRVPFTEEQLFSIFDIVPGLEYCEVQRDPYSNYGHGVVQYFNVASAIYAKYKLHGFQYPPGNRIGVSFIDDGSNATDLLRKMATQMVAAQLASMVWNNPSQQQFMQFGGSSGSQLPQIQTDVVLPSCKKKAPAETPVKERLFIVFNPHPLPLDVLEDIFCRFGNLIEVYLVSGKNVGYAKYADRISANDAIATLHGKILNGVRLKVMLADSPREESNKRQRTY
# notes: source: HEK293, transfected, in cells; not shown: 2xHA, N-terminal, kept
# B2: HA-RBM45 deletion construct D1 (Δ212–216) (natural protein, human, UniProt Q8IUH3-3 1-474, looked up)
# chain: MDEAGSSASGGGFRPGVDSLDEPPNSRIFLVISKYTPESVLRERFSPFGDIQDIWVVRDKHTKESKGIAFVKFARSSQACRAMEEMHGQCLGPNDTKPIKVFIAQSRSSGSHRDVEDEELTRIFVMIPKSYTEEDLREKFKVYGDIEYCSIIKNKVTGESKGLGYVRYLKPSQAAQAIENCDRSFRAILAEPKNKASESSEQDYYSNMRQEPRVNMFPFEQQSEFSSFDKNDSRGQEAISKRLSVVSRVPFTEEQLFSIFDIVPGLEYCEVQRDPYSNYGHGVVQYFNVASAIYAKYKLHGFQYPPGNRIGVSFIDDGSNATDLLRKMATQMVAAQLASMVWNNPSQQQFMQFGGSSGSQLPQIQTDVVLPSCKKKAPAETPVKERLFIVFNPHPLPLDVLEDIFCRFGNLIEVYLVSGKNVGYAKYADRISANDAIATLHGKILNGVRLKVMLADSPREESNKRQRTY
# notes: also called HA-RBM45 D1 mutant; source: HEK293, transfected, in lysate or in cells; not shown: 2xHA, N-terminal, kept
# B3: HA-RBM45 deletion construct D2 (Δ230–234) (natural protein, human, UniProt Q8IUH3-3 1-474, looked up)
# chain: MDEAGSSASGGGFRPGVDSLDEPPNSRIFLVISKYTPESVLRERFSPFGDIQDIWVVRDKHTKESKGIAFVKFARSSQACRAMEEMHGQCLGPNDTKPIKVFIAQSRSSGSHRDVEDEELTRIFVMIPKSYTEEDLREKFKVYGDIEYCSIIKNKVTGESKGLGYVRYLKPSQAAQAIENCDRSFRAILAEPKNKASESSEQDYYSNMRQEALGHEPRVNMFPFEQQSEKNDSRGQEAISKRLSVVSRVPFTEEQLFSIFDIVPGLEYCEVQRDPYSNYGHGVVQYFNVASAIYAKYKLHGFQYPPGNRIGVSFIDDGSNATDLLRKMATQMVAAQLASMVWNNPSQQQFMQFGGSSGSQLPQIQTDVVLPSCKKKAPAETPVKERLFIVFNPHPLPLDVLEDIFCRFGNLIEVYLVSGKNVGYAKYADRISANDAIATLHGKILNGVRLKVMLADSPREESNKRQRTY
# notes: source: HEK293, transfected, in lysate or in cells; not shown: 2xHA, N-terminal, kept
# B4: HA-tagged full-length RBM45 (natural protein, human, UniProt Q8IUH3-3 1-474, looked up)
# chain: MDEAGSSASGGGFRPGVDSLDEPPNSRIFLVISKYTPESVLRERFSPFGDIQDIWVVRDKHTKESKGIAFVKFARSSQACRAMEEMHGQCLGPNDTKPIKVFIAQSRSSGSHRDVEDEELTRIFVMIPKSYTEEDLREKFKVYGDIEYCSIIKNKVTGESKGLGYVRYLKPSQAAQAIENCDRSFRAILAEPKNKASESSEQDYYSNMRQEALGHEPRVNMFPFEQQSEFSSFDKNDSRGQEAISKRLSVVSRVPFTEEQLFSIFDIVPGLEYCEVQRDPYSNYGHGVVQYFNVASAIYAKYKLHGFQYPPGNRIGVSFIDDGSNATDLLRKMATQMVAAQLASMVWNNPSQQQFMQFGGSSGSQLPQIQTDVVLPSCKKKAPAETPVKERLFIVFNPHPLPLDVLEDIFCRFGNLIEVYLVSGKNVGYAKYADRISANDAIATLHGKILNGVRLKVMLADSPREESNKRQRTY
# notes: pcDNA3; also called HA-RBM45; HA-RBM45 wild-type; source: HEK293, transfected, in lysate or in cells; not shown: 2xHA, N-terminal, kept
# B5: HA-RBM45 NLS M2/3 double mutant (natural protein, human, UniProt Q8IUH3-3 1-474, looked up)
# chain: B4 chain with R454A, K456A, R464A, K469A, R470A, R472A
# notes: also called NLS-M2/3 mutant; HA-RBM45-NLS mutant; source: HEK293, transfected, in lysate or in cells; not shown: 2xHA, N-terminal, kept
# B6: FLAG-tagged RBM45 (full-length FLAG-RBM45) (natural protein, human, UniProt Q8IUH3-3 1-474, looked up)
# chain: B4 chain
# notes: pcDNA3; band of 56.6 kD; also called 3xFLAG-RBM45; FLAG-RMB45; source: HEK293, transfected or stably expressing, in lysate or in cells; not shown: 3xFLAG, N-terminal, kept
# Target: the molecule itself
# Assay: cross-linking; in vivo DSS cross-linking (1 mM DSS for 10 minutes, room temperature, PBS) of HEK293 expressing HA-RBM45 constructs; SDS-PAGE and immunoblot
row,Protein,stoichiometry N
1,B1,5
2,B2,5
3,B3,5
4,B4,5 and 10
5,B5,5

# Target: the molecule itself
# Assay: cross-linking; in vivo DSS cross-linking of live HEK293 stably expressing FLAG-RBM45, DSS 0 to 5000 uM; denaturing SDS-PAGE and immunoblot
row,Protein,stoichiometry N
1,B6,2 and 5
